The record followed here is US20230272055A1, “ANTI-MUTANT CALRETICULIN (CALR) ANTIBODIES AND USES THEREOF” (Incyte Corporation, priority 2021, published 2023).

Test [1] addresses Human Type 1 mutCALR (human). The test is described as follows: cell-based or functional assay.
Test [2] concerns the target human Type 1 mutCALR (52 bp deletion) (human).
Test [3] shares this target. The source holds these as a separate data set.
Test [4] has the same target. This is another data set of the same source.
Test [5] has the same target. The source holds these as a separate data set.
Test [6] addresses human Type 1 mutCALR on Ba/F3 cells expressing MPL and Type 1 mutCALR (human). Nature of the test: cell-based or functional assay.
The target in test [7] is human Type 1 mutCALR (52 bp deletion) (human). The source holds these as a separate data set.
human Type 1 mutCALR (52 bp deletion) (human), sequence (chain, as listed by the source limits assumed, stated change not applied): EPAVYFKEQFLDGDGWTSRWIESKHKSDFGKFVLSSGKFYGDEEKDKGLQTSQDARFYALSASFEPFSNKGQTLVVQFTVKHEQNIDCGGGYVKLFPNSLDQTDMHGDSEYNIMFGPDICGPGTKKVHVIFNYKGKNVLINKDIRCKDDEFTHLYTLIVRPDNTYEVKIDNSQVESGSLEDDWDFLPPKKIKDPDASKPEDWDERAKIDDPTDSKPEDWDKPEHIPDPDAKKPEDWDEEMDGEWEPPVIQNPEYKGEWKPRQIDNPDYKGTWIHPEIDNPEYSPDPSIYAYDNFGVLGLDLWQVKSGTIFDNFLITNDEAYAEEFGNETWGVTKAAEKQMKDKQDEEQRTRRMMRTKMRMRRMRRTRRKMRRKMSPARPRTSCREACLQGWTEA

Positions count from the first letter of the chain named. Like-named read-outs stand apart in the source and are kept apart here. A value given as a limit tells only on which side of the number the result lay.

Human Type 1 mutCALR (human), sequence (chain, as listed by the source limits assumed): as the sequence (chain, as listed by the source limits assumed, stated change not applied) above
human Type 1 mutCALR on Ba/F3 cells expressing MPL and Type 1 mutCALR (human), sequence (chain, as listed by the source limits assumed): as the sequence (chain, as listed by the source limits assumed, stated change not applied) above

B1: AB3: anti-mutCALR antibody including the BJ095 VH region and the BJ097 VL region from WO2019178362 fused to human constant regions (antibody, human IgG1, kappa, V domains shown)
VH: QVQLVQSGAEVKKPGASVKVSCKASGYSFTGYYIHWVRQAPGQGLEWIGYISAYNGASSYNQKFKGRATFTVDTSISTAYMELSRLRSDDTAVYYCASSMDYWGQGTLVTVSS
VL: DVVMTQSPLSLPVTLGQPASISCKSSQSLLDSDGKTYLNWLQQRPGQSPKRLIYLVSKLDSGVPDRFSGSGSGTDFTLKISRVEAEDVGVYHCWQGTHFPYTFGQGTKLIEKR
B1 showed an IC50 of inhibition of cell proliferation (BaF3 cells expressing MPL/mutCALR Type 1) in test [1] of more than 60000 ng/mL.

B2: AB2: anti-mutCALR antibody including VH and VL regions of antibody B3 from WO2020175689 fused to human constant regions (antibody, human IgG1, kappa, V domains shown)
VH: QVQLQQSGAELVKPGSSVKISCKASGYTFTRNFIHWIKQQPGNGLEWIGWIFPGDGDTEYNQKFNGKATLTADKSSSTAYMQLSSLTSEDSAVYFCARGNYNYEYFDYWGQGVMVTVSS
VL: DIQMTQSPASLSASLGETVSIECLASEDIYSYLAWYQQKPGKSPQLLIFAANRLQDGVPSRFSGSGSGTQFSLKISGMQPEDEGDYFCLQGSKFPYTFGPGTKLELNR
On to B2, for which the IC50 of inhibition of cell proliferation (BaF3 cells expressing MPL/mutCALR Type 1) in test [1] was more than 60000 ng/mL.

B3: anti-mutCALR antibody clone 68 (antibody, human IgG1, lambda, N297A, V domains shown)
VH: EVQLVQSGAEVKKPGASVKVSCKVSGYTLTELSMQWVRQAPGKGLEWMGGFDPDEGETMYAEKFQGRLTVTEDTSTDTVYMELRSLTSEDTALYFCATSPGYDFFDYWGQGTLVTVSS
VL: SYVLTQPPSVSVAPGKTARITCTGTSSDVGGYNYVSWYQQKPGQAPVLVVYEVSNRPSGIPERFSGSNSGNTATLTISRVEAGDEADYYCQVWDSSNDLLIFGGGTKLTVLG
In turn, B3 gave an IC50 of inhibition of MPL-LgBiT/MPL-smBiT dimerization (NanoBiT luminescence, percent of isotype) in transfected HAP1 JAK2-knockout cells in test [2] of 3.27 ng/mL. In test [1], the IC50 of inhibition of cell proliferation (Ba/F3 cells with MPL and mutCALR Type 1) was found to be 0.9 ng/mL.

B4: anti-mutCALR antibody clone 128 (antibody, human IgG1, lambda, N297A, V domains shown)
VH: B3 VH with E55D, G56A
VL: SYELTQPPSVSVAPGKTARITCGGDNIGSKSVHWYQQKPGQAPVLVVYDDSDRPSGIPERFSGSNSGNTATLTINRVEAGDEADYYCQVWDSSNDLLIFGGGTKLTVLG
For the molecule B4, the IC50 of inhibition of cell proliferation (Ba/F3 cells with MPL and mutCALR Type 1) in test [1] amounted to 9.8 ng/mL.

B5: anti-mutCALR antibody clone 74 (antibody, human IgG1, lambda, N297A, V domains shown)
VH: B3 VH with E55D, G56A, R84S, T87R, L93V
VL: B3 VL
As for B5, in test [1], the IC50 of inhibition of cell proliferation (Ba/F3 cells with MPL and mutCALR Type 1) came to 1 ng/mL; the Log IC50 of inhibition of cell proliferation, antibody + ruxolitinib (Ba/F3-TPOR/mutCALR type 1 cells) (Log IC50 (µg/mL)) is -1.46; the Log IC50 of inhibition of cell proliferation, antibody alone (Ba/F3-TPOR/mutCALR type 1 cells) (Log IC50 (µg/mL)) is -0.438. Besides, in test [3], the IC50 of inhibition of MPL-LgBiT/MPL-smBiT dimerization (NanoBiT luminescence, percent of isotype) in transfected HAP1 JAK2-knockout cells was 8.89 ng/mL.

B6: anti-mutCALR antibody clone 184 (antibody, human IgG1, lambda, N297A, V domains shown)
VH: B3 VH with E55D, G56A
VL: B4 VL with E3V, K16Q, D25S, N26D, S29D, K30E, S31I, N75S, N94S, L96H
As for B6, in test [1], the IC50 of inhibition of cell proliferation (Ba/F3 cells with MPL and mutCALR Type 1) came to 1.9 ng/mL. In test [4], the IC50 of inhibition of MPL-LgBiT/MPL-smBiT dimerization (NanoBiT luminescence, percent of isotype) in transfected HAP1 JAK2-knockout cells turned out to be 3.77 ng/mL.

B7: anti-mutCALR antibody clone 188 (antibody, human IgG1, lambda, N297A, V domains shown)
VH: B3 VH with R84S, T87R, L93V
VL: B4 VL with E3V, K16Q, D25S, N26D, S29D, K30E, S31I, N75S, N94S, L96H
With B7, in test [1], the IC50 of inhibition of cell proliferation (Ba/F3 cells with MPL and mutCALR Type 1) came out at 4.6 ng/mL. The molecule further displayed an IC50 of inhibition of MPL-LgBiT/MPL-smBiT dimerization (NanoBiT luminescence, percent of isotype) in transfected HAP1 JAK2-knockout cells in test [5] of 2.48 ng/mL.

B8: anti-mutCALR antibody clone 14 (antibody, human IgG1, lambda, V domains shown)
VH: B3 VH with E55D, T69A
VL: B4 VL with E3V, D25Y, S31F, Q36R, K38R, S51R, N75S
The molecule B8 registered an IC50, inhibition of pSTAT5 in test [6] of 0.06 µg/mL.

B9: anti-mutCALR antibody clone 65 (antibody, human IgG1, lambda, N297A, V domains shown)
VH: B3 VH with E55D
VL: B3 VL
In turn, B9 gave an IC50 of inhibition of cell proliferation (Ba/F3 cells with MPL and mutCALR Type 1) in test [1] of 0.3 ng/mL. Besides, in test [7], the IC50 of inhibition of MPL-LgBiT/MPL-smBiT dimerization (NanoBiT luminescence, percent of isotype) in transfected HAP1 JAK2-knockout cells is 3.27 ng/mL.

B10: anti-mutCALR antibody clone 54 (antibody, human IgG1, kappa, V domains shown)
VH: QVTLKESGPGILKPSQTLSLTCSFSGFSLSTSGMGVGWIRQPSGKGLEWLAHIWWDDDKYYNPYLKNQVTISKDTSRNQVFLKITSVDTADTATYYCARSAYGSTYGYWGQGTTLTVSS
VL: DIVLTQSPASLAVSLGQRATISCKASQSVDYDGDSFMNWYQQKPGQPPKLLIYTASILESGIPARFSGSGSGTDFTLNIHPVEEEDAATYYCQQSNEDPWTFGGGTKLEIKR
In the case of B10, the IC50, inhibition of pSTAT5 in test [6] is 12.7 µg/mL.
